This note sets out measurements from patent publication US20240279345A1, “ALPHA 5 BETA 1 INTEGRIN BINDING AGENTS AND USES THEREOF” (PASITHEA THERAPEUTICS CORP., priority 2021, published 2024).

One assay relates to U87MG cells. Description: Cellular detachment of U87MG cells from FN coated plates. It counts as cell-based. The note with it: for antibody concentration at which cellular detachment was seen: A-15B08 at 1 and 3 hours, A2-7A05 only obvious at 3 hours; for cellular detachment (cell rounding) of U87MG cells from FN coated plates: antibodies 2.0-0.016 μg/mL, cRGD 20-0.16 μM, 1 hour and 3 hours. The procedure:
The A-15B08 and A2-7A05 antibodies and cRGD were also tested for their ability to induce dissociation of cellular α5β1 integrin from FN. U87MG cells (HTB-14™, ATCC, Manassas, VA) which were originally derived from a Glioblastoma tumor, are known to express α5β1 integrin, and adhere to FN coated plates. After an overnight incubation on FN coated plates, the U87MG cells formed a loosely packed monolayer and have extended spindle shapes. If the cells are induced to detach from the plates, by trypsin for example, the attachment points are released, and the cells become round. This type of change in morphology was used to assess whether the antibodies and the small molecule inhibitor cRGD can induce U87MG cells to dissociate from FN coated plates.
The following method was used to assess cellular detachment activity: A 96-well cell culture plate (Thermo Fisher Scientific, Waltham, MA, cat. no. 165306) was coated with FN (Human Fibronectin, R&D Systems, Minneapolis, MN 55413, cat. no. 1918-FN) by incubation of 50 uL per well 32 μg/mL FN in 1×PBS for 1 hour at 37° C., then washed 2× with EMEM media (ATCC, Manassas, VA, cat. no. 30-2003) supplemented with 10% Fetal Bovine Serum (FBS; ATCC, Manassas, VA, cat. no. 30-2021). U87MG cells were plated at 20,000 cells per well in EMEM media+10% FBS overnight to allow for maximum adherence. The next day the media was replaced with fresh media that included a 1:5 dilution series of antibodies A-15B08, A2-7A05 or isotype control IgG4 at concentrations of 2.0, 0.4, 0.08 and 0.016 μg/mL or cRGD at 20, 4, 0.8 and 0.16 μM. All tests were run in duplicate. Cell morphology was assessed, and images were captured using a 10× objective of an ECHO Rebel light microscope (ECHO, San Diego, CA).

For assay [1], the target named is T1, rh-α5β1 in active conformation (binding to 12G10) (Homo sapiens, UniProt P05556+P08648).
T1 construct: purchased Acro Biosystems IT1-H52W5
Briefly: 12G10 conformation assay (α5β1 integrin binding to 12G10). The note with it: 0.5 mM MnCl2. Here is the method:
A Nunc MaxiSorp Flat-Bottom 96-well plate (Invitrogen, Waltham, MA, cat. no. 44-2404-21) was coated with 12G10 antibody at 2 μg/mL in 0.2M carbonate-bicarbonate buffer, pH9.4 (Thermo Scientific, Rockford, IL, cat. No. 28382) by incubation overnight at 4° C. Plates were then washed 3 times with Wash Buffer (1× Tris Buffered Saline containing 0.05% Tween20), then blocked with 2% BSA in 1×TBS for 2 hours at room temperature (RT). The human IgG4 chimeric versions of the antibodies were diluted in Standard Diluent (2% BSA, 1×TBS, 0.05% Tween20) containing 0.05 μg/mL rh-α5β1-6×His tagged protein (Acro Biosystems, Newark, DE, cat. no. IT1-H52W5) and 0.5 mM MnCl2 (TEKnova, Hollister, CA, cat. no. M0350) to generate a 7 point 1:5 antibody dilution series ranging from 10,000 ng/mL to 0.64 ng/mL. In addition to human IgG4 chimeric antibodies A-15B08, C-14D12 and A2-7A05, three other antibodies tested included IgG4 isotype control (human IgG4, Kappa, anti-fluorescein Ab00102-13.0, Absolute Antibody, Wilton, UK), anti-integrin alpha-5 clone SNAKA51 (MilliporeSigma, St. Louis, MO, cat. no. MABT201) known to induce integrin alpha-5 into an active conformation, and finally the 12G10 antibody itself which can directly compete with the 12G10 bound to the MaxiSorp plate. For the assays, 100 μL of the antibody dilution series, His-tagged-α5β1 mixture was added to the wells after the blocking solution was removed and wells were washed 3 times. […] Absorbance 450 nm was measured. Data points were normalized to the absorbance of the well containing no antibody for each dilution series and reported as Percent Binding. […]

T1 sequence (P08648 42-894 limits assumed): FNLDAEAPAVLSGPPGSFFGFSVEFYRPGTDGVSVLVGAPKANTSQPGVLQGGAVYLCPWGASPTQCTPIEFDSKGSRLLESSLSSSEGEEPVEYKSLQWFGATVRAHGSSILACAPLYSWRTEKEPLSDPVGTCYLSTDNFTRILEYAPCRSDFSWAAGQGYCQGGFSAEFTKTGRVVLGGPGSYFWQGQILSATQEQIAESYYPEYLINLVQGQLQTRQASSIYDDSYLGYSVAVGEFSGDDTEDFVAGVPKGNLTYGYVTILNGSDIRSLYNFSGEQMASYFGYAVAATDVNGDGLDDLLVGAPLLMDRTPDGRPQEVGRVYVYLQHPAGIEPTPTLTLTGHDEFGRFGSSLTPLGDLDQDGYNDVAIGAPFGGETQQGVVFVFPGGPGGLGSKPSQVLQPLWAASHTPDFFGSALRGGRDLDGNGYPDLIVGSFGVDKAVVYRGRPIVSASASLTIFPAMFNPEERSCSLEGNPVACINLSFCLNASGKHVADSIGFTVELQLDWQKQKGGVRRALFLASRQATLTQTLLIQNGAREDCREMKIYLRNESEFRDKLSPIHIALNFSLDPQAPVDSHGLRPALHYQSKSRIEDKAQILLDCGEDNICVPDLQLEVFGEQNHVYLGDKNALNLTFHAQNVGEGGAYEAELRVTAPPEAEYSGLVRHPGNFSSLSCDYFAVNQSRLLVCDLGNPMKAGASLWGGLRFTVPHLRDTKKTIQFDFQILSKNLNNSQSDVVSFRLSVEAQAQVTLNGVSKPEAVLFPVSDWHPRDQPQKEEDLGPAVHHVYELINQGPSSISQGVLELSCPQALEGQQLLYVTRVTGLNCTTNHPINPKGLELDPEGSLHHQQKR
T1 sequence (P08648 895-995 limits assumed): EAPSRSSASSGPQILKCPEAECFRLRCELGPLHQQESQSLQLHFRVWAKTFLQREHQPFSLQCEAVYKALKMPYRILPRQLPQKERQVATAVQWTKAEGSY
T1 sequence (P05556 21-728 limits assumed): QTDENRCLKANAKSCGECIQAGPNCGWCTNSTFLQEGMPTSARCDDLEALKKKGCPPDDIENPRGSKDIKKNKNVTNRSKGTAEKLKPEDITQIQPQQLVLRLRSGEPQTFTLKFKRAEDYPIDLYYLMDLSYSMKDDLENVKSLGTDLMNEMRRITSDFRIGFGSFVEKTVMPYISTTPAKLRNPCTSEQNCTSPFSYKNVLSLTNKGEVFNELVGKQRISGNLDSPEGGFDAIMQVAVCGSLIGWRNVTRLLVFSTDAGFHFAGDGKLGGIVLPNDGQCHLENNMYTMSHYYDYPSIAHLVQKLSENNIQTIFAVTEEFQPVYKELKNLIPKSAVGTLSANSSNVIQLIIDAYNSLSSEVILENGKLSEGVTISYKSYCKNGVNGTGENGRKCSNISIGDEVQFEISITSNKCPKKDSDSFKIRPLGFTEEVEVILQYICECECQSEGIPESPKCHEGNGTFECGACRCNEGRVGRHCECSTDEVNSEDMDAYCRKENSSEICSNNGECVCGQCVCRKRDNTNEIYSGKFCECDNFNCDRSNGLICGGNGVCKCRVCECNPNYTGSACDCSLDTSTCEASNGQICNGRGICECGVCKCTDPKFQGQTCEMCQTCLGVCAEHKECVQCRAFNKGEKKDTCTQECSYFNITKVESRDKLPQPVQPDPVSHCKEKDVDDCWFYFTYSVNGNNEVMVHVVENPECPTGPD

B1: A2-7A05: anti-α5β1 antibody, VH SEQ ID NO:77, VL SEQ ID NO:78; tested as mouse hybridoma antibody and as human IgG4 chimera (antibody, V domains shown)
VH: QVQLQQPGAELVKPGASVKLSCKASGYTFTIYWINWVKQRPGQGLEWIGKIYPGSISTDYNEKFKSKATLTVDTSSSTAYMQLSSLTSDDSAVYYCAITGTGGLAYWGQGTLVTVSA
VL: ENVLTQSPAIMSASLGEKVTMTCRASSSVNYMYWYQQKSDASPKLWIYFTSSLAPGVPGRFSGSGSGNSYSLTISTMEGEDAATYYCQQFTTSPFTFGSGTKLEIK
modifications: A2-7A05 VH Sequence; A2-7A05 VL Sequence
notes: tested as mouse hybridoma antibody and as human IgG4 chimera
B1: in the assay on U87MG cells, the “antibody concentration at which cellular detachment was seen” value worked out at 0.4 µg/mL and the “cellular detachment (cell rounding) of U87MG cells from FN coated plates” value is given as “much lower level”. Further, in assay [1] (dilution series 10,000 to 0.64 ng/mL), the “effect on α5β1 integrin binding to 12G10” value is recorded as “did not reduce α5β1 integrin binding to 12G10”.

B2: A-15B08: anti-α5β1 antibody, VH SEQ ID NO:25, VL SEQ ID NO:26; tested as mouse hybridoma antibody and as human IgG4 chimera (antibody, V domains shown)
VH: QVQLKESGPGLVAPSQSLSITCTISGFSLTSYGVHWVRQPPGKGLEWLVVIWSDGSTTYNSTLKSRLSISKDNSKSQVFFKMNSLQTDDTAMYYCARHYDYDGDWFAYWGQGTLVTVSA
VL: QIVLTQSPAIMSASLGERVTMTCTASSRVSSNSLHWYQQKPGSSPKLWIYSTSNLASGVPARFSGSGSGTSYSLTISSMEAEDAATYYCHQYLRSPPTFGGGTKLEIK
modifications: A-15B08 VH Sequence; A-15B08 VL Sequence
notes: as for B1
On to B2, for which, in the assay on U87MG cells, the “antibody concentration at which cellular detachment was seen” value is 0.4 µg/mL and the “cellular detachment (cell rounding) of U87MG cells from FN coated plates” value is “significant cell rounding”. Further, the “reduction of α5β1 integrin binding to 12G10” value in assay [1] (human IgG4 chimeric antibodies) is reported as “approximately 50%”.
